In patent publication US20190184015A1, “IRRADIATION TREATMENT OF NEUROLOGICAL SENSATIONS BY PHOTOABLATION” (European Molecular Biology Laboratory, priority 2016, published 2019):
Changes are numbered by the printed parent chain. In names and notes the source's numbering stands. Entries after “also recorded” stand apart in the source; their conditions may differ.

Experiments:
TrkB = TrkB (Homo sapiens, UniProt Q16620); assay: NGF^SNAP binding to Trk expressing cells
TrkC = TrkC (Homo sapiens, UniProt Q16288); assay: NGF^SNAP binding to Trk expressing cells
Sequence of TrkC (Q16288 32-839, species assumed): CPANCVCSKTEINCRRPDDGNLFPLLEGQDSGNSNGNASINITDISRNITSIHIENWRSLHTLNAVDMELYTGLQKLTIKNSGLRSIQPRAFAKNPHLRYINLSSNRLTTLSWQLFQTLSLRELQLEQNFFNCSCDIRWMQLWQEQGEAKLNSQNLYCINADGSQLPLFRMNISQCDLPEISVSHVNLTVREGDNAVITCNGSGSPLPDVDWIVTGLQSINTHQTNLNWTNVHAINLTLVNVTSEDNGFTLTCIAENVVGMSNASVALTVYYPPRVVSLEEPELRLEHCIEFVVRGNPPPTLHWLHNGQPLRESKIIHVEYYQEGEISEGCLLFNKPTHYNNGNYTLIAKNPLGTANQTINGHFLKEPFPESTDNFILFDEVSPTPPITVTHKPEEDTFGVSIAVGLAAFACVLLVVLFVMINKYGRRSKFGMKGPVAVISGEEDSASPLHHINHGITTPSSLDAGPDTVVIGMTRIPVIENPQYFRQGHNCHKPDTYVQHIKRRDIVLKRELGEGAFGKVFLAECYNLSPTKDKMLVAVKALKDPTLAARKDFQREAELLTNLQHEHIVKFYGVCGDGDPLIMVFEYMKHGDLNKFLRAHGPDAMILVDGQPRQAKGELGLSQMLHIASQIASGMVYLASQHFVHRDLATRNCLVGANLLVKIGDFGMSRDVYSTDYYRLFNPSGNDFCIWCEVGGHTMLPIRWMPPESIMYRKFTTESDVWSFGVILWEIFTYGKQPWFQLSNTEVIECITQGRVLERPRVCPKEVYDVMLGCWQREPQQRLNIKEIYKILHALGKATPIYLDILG

pain signaling (TrkA) = assay: Mechanical hypersensitivity after injection of the NGF ligand into the paw; assay type: in vivo, mouse; details: injected into the paw of mice
TrkA/p75 = target: T1, TrkA/p75 (Homo sapiens, UniProt P04629); assay: BDNF^SNAP labelling of transfected HEK293T cells; assay type: binding; details: labelled with SNAP-Surface647
T1 construct: expressed in transfected cells; host or cells: HEK293T
T1 sequence (P04629 33-796, species assumed): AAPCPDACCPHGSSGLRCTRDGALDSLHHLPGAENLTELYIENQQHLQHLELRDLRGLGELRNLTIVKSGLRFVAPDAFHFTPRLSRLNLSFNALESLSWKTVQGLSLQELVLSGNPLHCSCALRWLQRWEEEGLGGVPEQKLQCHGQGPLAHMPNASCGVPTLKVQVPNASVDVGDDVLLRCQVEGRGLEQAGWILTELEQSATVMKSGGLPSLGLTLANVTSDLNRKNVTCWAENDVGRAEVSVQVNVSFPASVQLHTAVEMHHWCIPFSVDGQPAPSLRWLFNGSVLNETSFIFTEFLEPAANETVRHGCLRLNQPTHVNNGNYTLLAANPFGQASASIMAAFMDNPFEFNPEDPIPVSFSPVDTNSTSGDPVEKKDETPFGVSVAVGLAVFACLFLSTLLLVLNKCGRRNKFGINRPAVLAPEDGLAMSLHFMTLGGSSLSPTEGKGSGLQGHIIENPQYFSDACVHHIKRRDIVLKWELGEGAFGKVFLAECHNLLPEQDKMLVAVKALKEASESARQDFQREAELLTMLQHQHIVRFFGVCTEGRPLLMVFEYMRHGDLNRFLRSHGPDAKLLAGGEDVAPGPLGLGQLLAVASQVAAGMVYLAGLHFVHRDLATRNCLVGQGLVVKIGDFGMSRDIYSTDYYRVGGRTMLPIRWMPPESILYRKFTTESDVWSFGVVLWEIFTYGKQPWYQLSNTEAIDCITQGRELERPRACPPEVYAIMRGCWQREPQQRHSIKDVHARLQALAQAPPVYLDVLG
Source text: (§1) In light of the clinical importance of mechanical allodynia in neuropathic pain patients, it was sought to develop a pharmacological strategy to exploit the striking selectivity of TrkB to the peripheral neurons which provoke this pain state. It was reasoned that BDNF, the ligand for TrkB, may give access to these neurons and allow for their manipulation in wildtype, non-transgenic animals. To this end the inventors produced a recombinant BDNF protein with a SNAP-tag fused to its C-terminus that would enable its chemical derivatization. BDNF^SNAP was labelled in vitro with fluorescent SNAP-Surface647 substrate and applied to HEK293T cells expressing neurotrophin receptors.

TrkB/p75 = target: T2, TrkB/p75 (Homo sapiens, UniProt Q16620); assay: BDNF^SNAP labelling of transfected HEK293T cells; assay type: binding; details: labelled with SNAP-Surface647
T2 construct: expressed in transfected cells; host or cells: HEK293T
T2 sequence (Q16620 32-822, species assumed): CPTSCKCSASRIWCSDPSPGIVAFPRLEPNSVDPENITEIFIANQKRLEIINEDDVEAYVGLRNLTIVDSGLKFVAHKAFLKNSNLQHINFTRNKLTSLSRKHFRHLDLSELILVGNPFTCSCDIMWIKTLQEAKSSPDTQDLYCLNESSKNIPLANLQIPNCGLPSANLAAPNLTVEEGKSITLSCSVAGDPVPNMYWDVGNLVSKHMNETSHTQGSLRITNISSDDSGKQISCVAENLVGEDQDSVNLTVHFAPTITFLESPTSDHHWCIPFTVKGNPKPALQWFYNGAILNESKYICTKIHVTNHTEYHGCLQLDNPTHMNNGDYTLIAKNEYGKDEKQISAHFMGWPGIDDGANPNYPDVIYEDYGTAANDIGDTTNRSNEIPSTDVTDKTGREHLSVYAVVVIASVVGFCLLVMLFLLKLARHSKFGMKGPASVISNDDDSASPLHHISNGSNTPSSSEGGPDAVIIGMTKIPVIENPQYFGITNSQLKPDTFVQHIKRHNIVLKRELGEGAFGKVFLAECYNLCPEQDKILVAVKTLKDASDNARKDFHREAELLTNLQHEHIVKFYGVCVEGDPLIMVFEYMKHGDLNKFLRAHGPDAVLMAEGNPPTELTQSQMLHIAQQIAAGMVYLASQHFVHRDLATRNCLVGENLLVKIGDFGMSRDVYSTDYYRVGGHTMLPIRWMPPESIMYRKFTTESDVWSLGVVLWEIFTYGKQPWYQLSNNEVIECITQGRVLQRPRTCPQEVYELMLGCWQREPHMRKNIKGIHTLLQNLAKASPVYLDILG
Source text: as §1

TrkC/p75 = target: T3, TrkC/p75 (Homo sapiens, UniProt Q16288); assay: BDNF^SNAP labelling of transfected HEK293T cells; assay type: binding; details: labelled with SNAP-Surface647
T3 construct: expressed in transfected cells; host or cells: HEK293T
T3 sequence (Q16288 32-839, species assumed): as the sequence (Q16288 32-839, species assumed) above
Source text: as §1

[1] = target: T4, native TrkB receptors in DRG neurons (Mus musculus, UniProt P15209); assay: BDNF^SNAP Qdot 655 labelling of dissociated DRG; assay type: binding; details: conjugated to Qdot 655; dissociated DRG from TrkBCreERT2::Rosa26RFP mice
T4 construct: whether BDNF^SNAP would recognize native TrkB receptors in DRG neurons; endogenous in cells; host or cells: dissociated dorsal root ganglion neurons from TrkBCreERT2::Rosa26RFP mice
T4 sequence (P15209 32-821): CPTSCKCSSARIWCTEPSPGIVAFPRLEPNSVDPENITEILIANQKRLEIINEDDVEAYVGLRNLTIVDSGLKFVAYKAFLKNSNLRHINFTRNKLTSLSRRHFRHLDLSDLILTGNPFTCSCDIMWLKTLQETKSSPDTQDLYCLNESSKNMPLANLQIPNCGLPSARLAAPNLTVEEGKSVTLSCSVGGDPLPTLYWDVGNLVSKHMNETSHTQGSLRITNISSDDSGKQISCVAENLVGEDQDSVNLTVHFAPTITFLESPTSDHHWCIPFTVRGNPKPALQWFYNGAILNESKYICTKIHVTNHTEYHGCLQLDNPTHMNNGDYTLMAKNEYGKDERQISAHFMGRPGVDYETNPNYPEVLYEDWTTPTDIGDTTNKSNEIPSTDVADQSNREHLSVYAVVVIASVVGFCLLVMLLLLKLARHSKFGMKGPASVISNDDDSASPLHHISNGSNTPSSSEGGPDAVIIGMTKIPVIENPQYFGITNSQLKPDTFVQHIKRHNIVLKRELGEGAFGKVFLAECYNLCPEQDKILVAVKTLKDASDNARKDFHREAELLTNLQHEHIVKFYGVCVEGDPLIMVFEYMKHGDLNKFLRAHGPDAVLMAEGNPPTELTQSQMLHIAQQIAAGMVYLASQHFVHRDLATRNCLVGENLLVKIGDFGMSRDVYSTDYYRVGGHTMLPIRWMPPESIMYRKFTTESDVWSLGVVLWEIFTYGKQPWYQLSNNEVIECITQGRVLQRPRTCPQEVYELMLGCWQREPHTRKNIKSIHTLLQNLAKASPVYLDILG
Source text: The inventors further tested whether BDNF^SNAP would recognize native TrkB receptors in DRG neurons.

primary keratinocytes = assay: In-vitro photo-ablation of primary keratinocytes (propidium iodide staining); assay type: cell-based, mouse; details: near infra-red light, 24 hours after
Description: 1 μM IL31^SNAP and 3 μM BG-IR700 were coupled for 1 hour at 37° C. The coupling reaction was applied for 10 minutes at 37° C. on primary wild type and IL31RA^−/− keratinocytes. Cells were then exposed to near infra-red light (680 nm) at 40 J/cm^2 for 2 minutes. 24 hours after light exposure cell death was assessed by Propidium iodide (PI) staining (Invitrogen #P3566) and cells were imaged with an epifluorescent microscope.

[2] = tested on: IL31 receptor expressing cells; assay: In-vivo photo-ablation of skin, TUNEL assay; parameters: species or system mouse; details: IL31RA^−/− mice; injection and near infrared light
[3] = tested on: IL31 evoked scratching behavior; assay: Scratching during three days of IL31^SNAP-IR700 injection and illumination; details: injected three consecutive days and skin illuminated
[4] = tested on: acute itch evoked by IL31, histamine, chloroquine or LY344864; assay: Pruritogen evoked scratching after photoablation; assay type: in vivo, mouse
Description: To characterize IL31^K138A-SNAP mediated photoablation in vivo, the inventors first tested its efficacy at alleviating IL31 provoked itch. Mice were treated for three consecutively days with IL31^K138A-SNAP-IR700 and the skin was illuminated with near-IR light. Strikingly, IL31-induced scratching behavior was abolished in these animals (FIG. 2f), and this persisted throughout an 8 week observation period (Supplementary FIG. 2l). […] The inventors next tested the effects of photoablation on scratching provoked by other acutely applied pruritogens. […] Finally, to assess the specificity of photoablation to itch sensation, the inventors examined other sensory modalities after treatment.

thermal sensitivity = assay: Hot plate test after photoablation in the hind paw; assay type: in vivo, mouse
Description: Mice were injected for three consecutive days with […] coupled with BG-IR700 with or without near IR light illumination. 3 days after the last injection, mice were placed on top of a hot plate (Ugo Basile #35150) that was preset to 52° C. and the latency to response as distinguished by flicking or licking of the hind paw was observed. In order to avoid injury to the mice, a cutoff of 30 seconds was set.

mechanical sensitivity = assay: Von Frey test after photoablation in the hind paw; assay type: in vivo, mouse
Description: Mice were habituated on an elevated platform with a mesh floor for 30 minutes. The plantar side of the hind paw was stimulated with calibrated von-Frey filaments (North coast medical #NC12775-99) to assess baseline levels of mechanical sensitivity. The stimulation was then repeated at the 3rd day after the last photoablation performed on the same paw considered for the baseline. As a control group, the animals were injected but not illuminated. The 50% paw withdrawal thresholds were calculated using the Up-Down method (26).

IL31RA expressing cells = assay: Cell type specificity of photo-ablation in skin; assay type: in vivo
[5] = tested on: Calcipotriol model of atopic dermatitis; assay: Calcipotriol model of atopic dermatitis
[6] = after photoablation with near-IR light
[7] = prevention: injection and near IR illumination 3 days prior to Calcipotriol
[8] = rescue: subcutaneous injection and near IR light after 7 days Calcipotriol
[9] = topical application in water-in-oil micro-emulsion, near IR light

Sequence of TrkB (Q16620 32-822, species assumed): as the sequence (Q16620 32-822, species assumed) above

Molecule: NGF^SNAP: recombinant NGF^SNAP protein
- binding to TrkB cells (TrkB): not TrkB or TrkC
- binding to TrkC cells (TrkC): not TrkB or TrkC
- mechanical hypersensitivity provoked by the ligand (pain signaling (TrkA)): strong sensitizing effect; also recorded: induces mechanical hypersensitivity

B1: BDNF^SNAP: recombinant BDNF protein with a SNAP-tag fused to its C-terminus (protein, UniProt P23560 19-247, looked up)
Neurotrophic factor BDNF …: APMKEANIRGQGGLAYPGVRTHGTLESVNGPKAGSRGLTSLADTFEHVIEELLDEDQKVRPNEENNKDADLYTSRVMLSSQVPLEPPLLFLLEEYKNYLDAANMSMRVRRHSDPARRGELSVCDSISEWVTAADKKTAVDMSGGTVTVLEKVPVSKGQLKQYFYETKCNPMGYTKEGCRGIDKRHWNSQCRTTQSYVRALTMDSKKRIGWRFIRIDTSCVCTLTIKRGR
modifications: C-terminal SNAP tag
notes: recombinant BDNF protein with a SNAP-tag fused to its C-terminus
- binding to HEK293T cells expressing TrkA/p75 (TrkA/p75): did not bind
- binding to HEK293T cells expressing TrkB/p75 (TrkB/p75): remarkable selectivity for its cognate receptor complex TrkB/p75
- binding to HEK293T cells expressing TrkC/p75 (TrkC/p75): did not bind
- overlap between BDNF^SNAP and TrkBCreERT2 positive cells [1]: > 95%

B2: IL31^SNAP-IR700: IL31^SNAP conjugated in vitro to benzylguanine modified IRDye®700DX phthalocyanine (conjugate)
chain: TCSLSFGAPISKEDLRTTIDLLKQESQDLYNNYSIKQASGMSADESIQLPCFSLDREALTNISVIIAHLEKVKVLSENTVDTSWVIRWLTNISCFNPLNLNISVPGNTDESYDCKVFVLTVLKQFSNCMAELQAKDNTTC
modifications: left off: small tags and cut ends
notes: IL31^SNAP conjugated in vitro to benzylguanine modified IRDye®700DX phthalocyanine
- cell death after illumination (primary keratinocytes; IL31RA^−/− keratinocytes): not evident
- cell death after illumination (primary keratinocytes; wild type keratinocytes): substantial cell death
- TUNEL positive apoptotic cells in skin [2]: largely absent
- scratching bouts [3]: progressive decrease in scratching bouts

B3: IL31^K138A-SNAP-IR700 (conjugate)
chain: B2 chain with K115A
modifications: left off: small tags and cut ends
- LY344864 evoked itch [4, 6]: no significant effect
- chloroquine evoked itch [4, 6]: no significant effect
- histamine evoked itch [4, 6]: no significant effect
- IL31-evoked scratching ([4]; injected but not illuminated (control)): no reduction in IL31-evoked scratching
- IL31-induced scratching behavior ([4]; three consecutive days treatment with near-IR light): abolished
- persistence of abolished IL31-induced scratching ([4]; with near-IR light, observation period): ≥ 8 week
- thermal sensitivity (hot plate test) (thermal sensitivity): no difference in response properties
- mechanical sensitivity (von Frey filaments) (mechanical sensitivity): no difference in response properties
- effect of photo-ablation on other cell types (IL31RA expressing cells): does not affect other cell types such as keratinocytes or epidermal Langerhans cells
- development of dermatitis-like symptoms ([5]; prevention: identical experiments in the absence of near IR illumination): normal development of dermatitis-like symptoms
- development of atopic dermatitis-like indicators [5, 7]: completely abolished the development of all indicators
- scratching behavior [5, 7]: remained at baseline levels
- skin appearance [5, 7]: skin appeared healthy and typical features of dermatitis such as redness and scaling were entirely absent
- disease indicators of established dermatitis ([5]; rescue: after 7 days Calcipotriol, subcutaneous injection and near IR light three days, over the course of 1 week): rescue of all disease indicators
- scratching behavior [5, 8]: returned to baseline levels
- skin thickness, morphology and structure [5, 8]: became indistinguishable from healthy mice
- reversal of dermatitis-like symptoms ([5]; rescue: without subsequent near IR illumination (control)): not evident
- scratching behavior [5, 9]: return to baseline levels of scratching behavior
- skin structure and histology [5, 9]: normalization of skin structure and histology
- Calcipotriol provoked dermatitis-like symptoms ([5]; topical application in water-in-oil micro-emulsion, near IR light 20 minutes later): both prevented and reversed Calcipotriol provoked dermatitis-like symptoms
